This passage reports Kd results from PMC3504642.

pKd: −log10 of the molar value.

Experiment [1] addresses AF488-Fc (C328A/K367C IgE-Fc Cε3-Cε4 protein labeled with Alexa Fluor 488 at residue 367). Put plainly: other fluorescence titration.
The next experiment addresses FcεRIα (Homo sapiens) (UniProt P12319). As to conditions: cited from earlier work.

By pKd is commonly meant −log10 of the Kd, conventionally taken in molar units.

“soluble FcεRI α-chain ectodomain (from UniProt P12319 26-205) (receptor)” had a negative logarithm of the Kd (pKd) in experiment [1] of 7.66.
In the case of “IgE Fc Fc (Cε2-Cε4) (from UniProt P01854)”, the pKd with FcεRIα (Homo sapiens) is > 9.00.
